Literature values as cited in patent publication US6440936B2, “Anti-protozoan methods and materials” (Xoma Corporation, priority 1994, dated 2002).

Experiments:
T. gondii = conditions: 0.25 μg/ml in cyst medium
[1] = tested on: Staphylococcus aureus (four strains), Staphylococcus epidermidis, Streptococcus faecalis, Bacillus subtilis, Micrococcus lysodeikticus, Listeria monocylogenes; conditions: 10^−6 M or 160 μg/ml; pH 7.0 or 5.5
[2] = tested on: Candida albicans and Candida parapsilosis; conditions: 10^−6 M; Ph 7.0 or 5.5
[3] = tested on: human, rabbit and sheep red blood cells and several human tumor cell lines

For `C[C@@H]1[C@H](O)[C@@H](C)/C=C/C=C/C=C/C=C/C=C/C=C/C=C/[C@H](O[C@@H]2O[C@H](C)[C@@H](O)[C@H](N)[C@@H]2O)C[C@@H]2O[C@](O)(C[C@@H](O)C[C@@H](O)[C@H](O)CC[C@@H](O)C[C@@H](O)CC(=O)O[C@H]1C)C[C@H](O)[C@H]2C(=O)O` [Amphotericin B], the anti-T. gondii effect (T. gondii) is given as “does not have a significant anti-T. gondii effect”.

B1: BPI: protein isolated from the granules of mammalian polymorphonuclear neutrophils; human BPI approximately 55 kD (protein, UniProt P17213 32-487, looked up)
Bactericidal …: VNPGVVVRISQKGLDYASQQGTAALQKELKRIKIPDYSDSFKIKHLGKGHYSFYSMDIREFQLPSSQISMVPNVGLKFSISNANIKISGKWKAQKRFLKMSGNFDLSIEGMSISADLKLGSNPTSGKPTITCSSCSSHINSVHVHISKSKVGWLIQLFHKKIESALRNKMNSQVCEKVTNSVSSELQPYFQTLPVMTKIDSVAGINYGLVAPPATTAETLDVQMKGEFYSENHHNPPPFAPPVMEFPAAHDRMVYLGLSDYFFNTAGLVYQEAGVLKMTLRDDMIPKESKFRLTTKFFGTFLPEVAKKFPNMKIQIHVSASTPPHLSVQPTGLTFYPAVDVQAFAVLPNSSLASLFLIGMHTTGSMEVSAESNRLVGELKLDRLLLELKHSNIGPFPVELLQDIMNYIVPILVLPRVNEKLQKGFPLPTPARVQLYNVVLQPHQNFLLFGADVVYK
For B1, the “toxic effect on gram-positive organisms” value [1] is given as “no toxic effect”, the “toxic effect on fungi” value [2] is given as “no toxic effect” and the “toxicity to higher eukaryotic cells” value [3] is given as “non-toxic”.
